# Source: patent US20180155451A1 (published 2018)
# B1: GpH7-A5/GpH7-B3 variant (T335_04F)/GpL16-k0 (antibody, human IgG1, kappa)
# heavy 1: not shown
# heavy 2: not shown
# light: DIVMTQSPLSLPVTPGEPASISCQASESLVHSNRNTYLHWYLQKPGQSPQLLIYKVSNRFSGVPDRFSGSGSGTDFTLKISRVEAEDVGVYYCSQNTHVPPTFGQGTKVEIERTVAAPSVFIFPPSDEQLKSGTASVVCLLNNFYPREAKVQWKVDNALQSGNSQESVTEQDSKDSTYSLSSTLTLSKADYEKHKVYACEVTHQGLSSPVTKSFNRGEC
# notes: Heterodimerized; only the B3 chain altered; also called He Ab T335_04F
# B2: GpH7-A5/GpH7-B3 variant (I336_14T)/GpL16-k0 (antibody, human IgG1, kappa)
# heavy 1: not shown
# heavy 2: not shown
# light: B1 light
# notes: Heterodimerized; only the B3 chain altered; also called He Ab I336_14T
# B3: GpH7-A5/GpH7-B3 variant (Y300_13S)/GpL16-k0 (antibody, human IgG1, kappa)
# heavy 1: not shown
# heavy 2: not shown
# light: B1 light
# notes: Heterodimerized; only the B3 chain altered; also called He Ab Y300_13S
# B4: GpH7-A5/GpH7-B3 variant (T335_07I)/GpL16-k0 (antibody, human IgG1, kappa)
# heavy 1: not shown
# heavy 2: not shown
# light: B1 light
# notes: Heterodimerized; only the B3 chain altered; also called He Ab T335_07I
# B5: GpH7-A5/GpH7-B3 variant (A330_19Q)/GpL16-k0 (antibody, human IgG1, kappa)
# heavy 1: not shown
# heavy 2: not shown
# light: B1 light
# notes: Heterodimerized; only the B3 chain altered; also called He Ab A330_19Q
# B6: GpH7-A5/GpH7-B3 variant (T335_20W)/GpL16-k0 (antibody, human IgG1, kappa)
# heavy 1: not shown
# heavy 2: not shown
# light: B1 light
# notes: Heterodimerized; only the B3 chain altered; also called He Ab T335_20W
# B7: GpH7-A5/GpH7-B3 variant (Y300_06M)/GpL16-k0 (antibody, human IgG1, kappa)
# heavy 1: not shown
# heavy 2: not shown
# light: B1 light
# notes: Heterodimerized; only the B3 chain altered; also called He Ab Y300_06M
# B8: GpH7-A5/GpH7-B3 variant (D265_10E)/GpL16-k0 (antibody, human IgG1, kappa)
# heavy 1: not shown
# heavy 2: not shown
# light: B1 light
# notes: Heterodimerized; only the B3 chain altered; also called He Ab D265_10E
# B9: GpH7-A5/GpH7-B3 variant (Y296_16H)/GpL16-k0 (antibody, human IgG1, kappa)
# heavy 1: not shown
# heavy 2: not shown
# light: B1 light
# notes: Heterodimerized; only the B3 chain altered; also called He Ab Y296_16H
# B10: GpH7-A5/GpH7-B3 variant (T335_06M)/GpL16-k0 (antibody, human IgG1, kappa)
# heavy 1: not shown
# heavy 2: not shown
# light: B1 light
# notes: Heterodimerized; only the B3 chain altered; also called He Ab T335_06M
# B11: GpH7-A5/GpH7-B3 variant (S337_07I)/GpL16-k0 (antibody, human IgG1, kappa)
# heavy 1: not shown
# heavy 2: not shown
# light: B1 light
# notes: Heterodimerized; only the B3 chain altered; also called He Ab S337_07I
# B12: GpH7-A5/GpH7-B3 variant (T335_11K)/GpL16-k0 (antibody, human IgG1, kappa)
# heavy 1: not shown
# heavy 2: not shown
# light: B1 light
# notes: Heterodimerized; only the B3 chain altered; also called He Ab T335_11K
# B13: GpH7-A5/GpH7-B3 variant (T335_09D)/GpL16-k0 (antibody, human IgG1, kappa)
# heavy 1: not shown
# heavy 2: not shown
# light: B1 light
# notes: Heterodimerized; only the B3 chain altered; also called He Ab T335_09D
# B14: GpH7-A5/GpH7-B3 variant (I336_08L)/GpL16-k0 (antibody, human IgG1, kappa)
# heavy 1: not shown
# heavy 2: not shown
# light: B1 light
# notes: Heterodimerized; only the B3 chain altered; also called He Ab I336_08L
# B15: GpH7-A5/GpH7-B3 variant (S337_06M)/GpL16-k0 (antibody, human IgG1, kappa)
# heavy 1: not shown
# heavy 2: not shown
# light: B1 light
# notes: Heterodimerized; only the B3 chain altered; also called He Ab S337_06M
# B16: GpH7-A5/GpH7-B3 variant (T335_19Q)/GpL16-k0 (antibody, human IgG1, kappa)
# heavy 1: not shown
# heavy 2: not shown
# light: B1 light
# notes: Heterodimerized; only the B3 chain altered; also called He Ab T335_19Q
# B17: GpH7-A5/GpH7-B3 variant (Y300_08L)/GpL16-k0 (antibody, human IgG1, kappa)
# heavy 1: not shown
# heavy 2: not shown
# light: B1 light
# notes: Heterodimerized; only the B3 chain altered; also called He Ab Y300_08L
# B18: GpH7-A5/GpH7-B3 variant (Y300_02A)/GpL16-k0 (antibody, human IgG1, kappa)
# heavy 1: not shown
# heavy 2: not shown
# light: B1 light
# notes: Heterodimerized; only the B3 chain altered; also called He Ab Y300_02A
# B19: GpH7-A5/GpH7-B3 variant (Y296_11K)/GpL16-k0 (antibody, human IgG1, kappa)
# heavy 1: not shown
# heavy 2: not shown
# light: B1 light
# notes: Heterodimerized; only the B3 chain altered; also called He Ab Y296_11K
# B20: GpH7-A5/GpH7-B3 variant (Y296_06M)/GpL16-k0 (antibody, human IgG1, kappa)
# heavy 1: not shown
# heavy 2: not shown
# light: B1 light
# notes: Heterodimerized; only the B3 chain altered; also called He Ab Y296_06M
# B21: GpH7-A5/GpH7-B3 variant (H268_01G)/GpL16-k0 (antibody, human IgG1, kappa)
# heavy 1: not shown
# heavy 2: not shown
# light: B1 light
# notes: Heterodimerized; only the B3 chain altered; also called He Ab H268_01G
# B22: GpH7-A5/GpH7-B3 variant (H268_10E)/GpL16-k0 (antibody, human IgG1, kappa)
# heavy 1: not shown
# heavy 2: not shown
# light: B1 light
# notes: Heterodimerized; only the B3 chain altered; also called He Ab H268_10E
# B23: GpH7-A5/GpH7-B3 variant (T335_15Y)/GpL16-k0 (antibody, human IgG1, kappa)
# heavy 1: not shown
# heavy 2: not shown
# light: B1 light
# notes: Heterodimerized; only the B3 chain altered; also called He Ab T335_15Y
# B24: GpH7-A5/GpH7-B3 variant (Y300_11K)/GpL16-k0 (antibody, human IgG1, kappa)
# heavy 1: not shown
# heavy 2: not shown
# light: B1 light
# notes: Heterodimerized; only the B3 chain altered; also called He Ab Y300_11K
# B25: GpH7-A5/GpH7-B3 variant (S337_19Q)/GpL16-k0 (antibody, human IgG1, kappa)
# heavy 1: not shown
# heavy 2: not shown
# light: B1 light
# notes: Heterodimerized; only the B3 chain altered; also called He Ab S337_19Q
# B26: GpH7-A5/GpH7-B3 variant (S337_04F)/GpL16-k0 (antibody, human IgG1, kappa)
# heavy 1: not shown
# heavy 2: not shown
# light: B1 light
# notes: Heterodimerized; only the B3 chain altered; also called He Ab S337_04F
# B27: GpH7-A5/GpH7-B3 variant (H268_13S)/GpL16-k0 (antibody, human IgG1, kappa)
# heavy 1: not shown
# heavy 2: not shown
# light: B1 light
# notes: Heterodimerized; only the B3 chain altered; also called He Ab H268_13S
# B28: GpH7-A5/GpH7-B3 variant (S337_20W)/GpL16-k0 (antibody, human IgG1, kappa)
# heavy 1: not shown
# heavy 2: not shown
# light: B1 light
# notes: Heterodimerized; only the B3 chain altered; also called He Ab S337_20W
# Molecular target: T1, FcγRIa extracellular domain with C-terminal His tag (human, UniProt P12314 16-292)
# T1 construct: extracellular domain; Expressed in FreeStyle293 cells; used as analyte in Biacore; also called FcgRI; 1a; not shown: His tag at the C terminus
# T1 sequence (P12314 16-292): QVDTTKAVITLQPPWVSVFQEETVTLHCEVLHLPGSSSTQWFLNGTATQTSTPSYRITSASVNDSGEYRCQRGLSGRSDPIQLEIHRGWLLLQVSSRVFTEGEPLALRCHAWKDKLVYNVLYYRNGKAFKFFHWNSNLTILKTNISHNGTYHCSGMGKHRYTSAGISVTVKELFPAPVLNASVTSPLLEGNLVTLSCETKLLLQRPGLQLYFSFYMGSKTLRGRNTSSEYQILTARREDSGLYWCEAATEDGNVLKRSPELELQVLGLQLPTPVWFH
# Assay: SPR (Biacore), captured antibody, FcγRIa analyte; relative to GpH7-A5/GpH7-B3/GpL16-k0 = 100
row,He/Con_1a,Binder
1,105 % of control,B1
2,104 % of control,B2
3,111 % of control,B3
4,109 % of control,B4
5,105 % of control,B5
6,106 % of control,B6
7,112 % of control,B7
8,101 % of control,B8
9,106 % of control,B9
10,107 % of control,B10
11,105 % of control,B11
12,111 % of control,B12
13,108 % of control,B13
14,107 % of control,B14
15,107 % of control,B15
16,105 % of control,B16
17,113 % of control,B17
18,112 % of control,B18
19,105 % of control,B19
20,104 % of control,B20
21,107 % of control,B21
22,111 % of control,B22
23,107 % of control,B23
24,107 % of control,B24
25,105 % of control,B25
26,106 % of control,B26
27,109 % of control,B27
28,105 % of control,B28
